Test results: patent CN114075285A (REYOUNG SUZHOU BIOPHARMACEUTICAL CO LTD, dated 2022)

B1: RB0021-S3 (antibody)
chain 1: not shown
chain 2: DVQMTQSPSSVSASVGDRVTITCRSSQSPEHSNGNTYLHWYQQKPGKAPKLLIYKVSNRFSGVPSRFSGSGSGTDFTLTISSLQPEDFATYFCSQGTHFPFTFGQGTKVEIKRTVAAPSVFIFPPSDEQLKSGTASVVCLLNNFYPREAKVQWKVDNALQSGNSQESVTEQDSKDSTYSLSSTLTLSKADYEKHKVYACEVTHQGLSSPVTKSFNRGEC
B2: RB0021-S4 (antibody)
chain 1: not shown
chain 2: B1 chain 2

How the values were obtained:
[1] = molecular target: CD38 antigen on the cell surface (Daudi cells; NCI-H929 cells) (human, UniProt P28907 1-300); test: cell-based or functional assay
[2] = molecular target: T1, CD38 (human), analyte in Biacore (human, UniProt P28907 43-300, limits assumed); test: SPR (Biacore 8K), antibody captured on Protein A chip, CD38 as analyte, 25℃
T1 construct: also called 分析物CD38; 人的CD38蛋白

Binder	ADCC reporter (Jurkat-Lucia-NFAT-CD16 + NCI-H929), EC50(μg/mL) [1] [µg/mL]	Kd [2] [nM]
B1	0.011	1.04
B2	0.014	1.04
